Reference: article PMC4038462, “PAX6 Regulates Melanogenesis in the Retinal Pigmented Epithelium through Feed-Forward Regulatory Interactions with MITF” (PLoS Genetics, 2014)

Biological target: T1, 3xFLAG-MITF (UniProt Q08874 1-526)
T1 sequence (looked up): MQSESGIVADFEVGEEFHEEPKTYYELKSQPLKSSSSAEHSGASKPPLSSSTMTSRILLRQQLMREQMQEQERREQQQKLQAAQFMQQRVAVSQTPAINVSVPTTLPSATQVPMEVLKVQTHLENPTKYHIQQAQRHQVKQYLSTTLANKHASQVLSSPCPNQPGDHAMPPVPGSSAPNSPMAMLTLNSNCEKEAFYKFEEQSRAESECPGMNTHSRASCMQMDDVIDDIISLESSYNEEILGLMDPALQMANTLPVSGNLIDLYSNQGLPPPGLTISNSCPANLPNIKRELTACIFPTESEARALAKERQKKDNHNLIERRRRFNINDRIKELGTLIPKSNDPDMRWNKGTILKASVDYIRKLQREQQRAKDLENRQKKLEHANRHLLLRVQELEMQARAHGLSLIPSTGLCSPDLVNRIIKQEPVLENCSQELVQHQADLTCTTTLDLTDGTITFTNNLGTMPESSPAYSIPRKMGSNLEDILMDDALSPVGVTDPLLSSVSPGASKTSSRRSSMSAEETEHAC
Assay: cell-based or functional assay

- luciferase reporter under the hTyr promoter in HeLa cells, fold change with MITF + PAX6 (MITF alone 12.6 fold): 71.3 fold change
- luciferase reporter under the mTyrp1 promoter in HeLa cells, fold change with MITF + PAX6 (MITF alone 5.6 fold; PAX6 alone no activation): 51.9 fold change
- luciferase reporter with four consecutive M-box elements in HeLa cells, fold activity with PAX6 and MITF together (MITF alone 6.6 fold; PAX6 alone none): 11.9 fold
B1: 3xFLAG-PAX6 (natural protein)
chain: not shown
